US11180789B2, “Method for bioconversion of mogroside extracts into siamenoside I” (National Taiwan University, priority 2019, dated 2021)

Tests used:
[1] = biological target: T1, recombinant ScExg1 (rScExg1), Exg1p of Saccharomyces cerevisiae (Saccharomyces cerevisiae, UniProt P23776); assay: Enzyme kinetics of recombinant ScExg1 on oNPG and pNPG substrates (β-glucosidase activity); type: biochemical; conditions: pNP/oNP release at 405 nm
T1 sequence (P23776 41-448): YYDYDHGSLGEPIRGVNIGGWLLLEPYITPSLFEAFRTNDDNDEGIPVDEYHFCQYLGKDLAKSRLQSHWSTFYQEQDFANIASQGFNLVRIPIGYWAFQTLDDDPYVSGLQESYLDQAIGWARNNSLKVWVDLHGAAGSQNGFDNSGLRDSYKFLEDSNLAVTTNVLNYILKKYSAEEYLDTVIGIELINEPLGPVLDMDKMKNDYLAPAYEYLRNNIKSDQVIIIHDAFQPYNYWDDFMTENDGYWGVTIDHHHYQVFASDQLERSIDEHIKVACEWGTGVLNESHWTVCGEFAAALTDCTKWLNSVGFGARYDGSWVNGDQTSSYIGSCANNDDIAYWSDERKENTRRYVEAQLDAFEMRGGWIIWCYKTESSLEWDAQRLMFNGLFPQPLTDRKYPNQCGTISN
Experimental: The optimal conditions for β-glucosidase activity were determined. The optimum pH was obtained by monitoring enzyme activity at a range of pH levels (from pH 3 to pH 9) in the reaction buffer. Incubation was carried out at 60° C. for 30 min. To analyze enzyme stability, the same buffer system and pH range were used, however, the reactions were performed at 4° C. for 1 h. The optimum temperature was determined in 20 mM acetate buffer at pH 5 in a range of temperatures from 20° C. to 90° C. For temperature stability analysis, β-glucosidase was extracted and activity was monitored following 1 h incubation in 20 mM acetate buffer, pH 5. […] The f-glucosidase activity was determined by measuring the levels of p-nitrophenol (pNP) or o-nitrophenol (oNP) released from pNPG or oNPG after the glucose was hydrolyzed by glucosidase. The released pNP or oNP was detected at a wavelength of 405 nm and calibrated with standard curves. […]
(§1) To evaluate the preferred pH, preferred temperature and hydrolyzing capability of rDbExg1, we used pNPG substrates and compared the results with ScExg1. rDbExg1 retained half of its activity over a pH range of 3.0 to 7.0 and was stable at pH 5.0-7.0. […] The Michaelis constant (Km) and maximum velocity (Vmax) of rDbExg1 and rScExg1 were also compared and calculated (Table 3). […]

[2] = relative to 5% sucrose in water; cited from earlier work
[3] = substrate: O=[N+]([O-])c1ccccc1O[C@@H]1O[C@H](CO)[C@@H](O)[C@H](O)[C@H]1O; assay: purified protein, by the assay type; conditions: other: rDbExg1, substrate 10 mM, acetate buffer, pH 5, 60° C., pNP/oNP release at 405 nm
[4] = substrate: O=[N+]([O-])c1ccc(O[C@@H]2O[C@H](CO)[C@@H](O)[C@H](O)[C@H]2O)cc1; assay: Enzyme kinetics of recombinant DbExg1 on oNPG and pNPG substrates (β-glucosidase activity); type: biochemical, Dekkera bruxellensis; conditions: other: rDbExg1, substrate 10 mM, acetate buffer, pH 5, 60° C., pNP/oNP release at 405 nm
Excerpt: Exg1-like β-glucosidase from Dekkera bruxellensis (DbExg1) was cloned with the Gateway cloning system. Briefly, the coding region of DbExg1 was first amplified by PCR. The forward primer was
underline indicates gene coding region). Genomic DNA extracted from D. bruxellensis was used as the template. Yeast expression vectors (pYES-DEST52) were further introduced to generate galactose-inducible plasmids carrying the correct DbExg1 sequence. The yeast vectors were then amplified and transformed into Exg1-deleted S. cerevisiae (exg1Δ mutants) for the galactose-induced DbExg1 protein expression assay. DbExg1 gene was also integrated into (exg1Δ mutants) with a GPD promoter. For protein purification, the culture media was concentrated with a 30 kDa MWCO (molecular weight cutoff) ultrafiltration membrane (Vivaspin 20, GE Co., Taipei, Taiwan). The extracellular protein concentrates were purified by Ni^2+-affinity chromatography. Protein homogeneity in each fraction was assessed by SDS-PAGE and silver staining.
The optimal conditions for β-glucosidase activity were determined. The optimum pH was obtained by monitoring enzyme activity at a range of pH levels (from pH 3 to pH 9) in the reaction buffer. Incubation was carried out at 60° C. for 30 min. To analyze enzyme stability, the same buffer system and pH range were used, however, the reactions were performed at 4° C. for 1 h. The optimum temperature was determined in 20 mM acetate buffer at pH 5 in a range of temperatures from 20° C. to 90° C. For temperature stability analysis, β-glucosidase was extracted and activity was monitored following 1 h incubation in 20 mM acetate buffer, pH 5. […] The enzyme and substrate mixture were incubated under optimum enzymatic reactions conditions of 60° C., pH 5. The f-glucosidase activity was determined by measuring the levels of p-nitrophenol (pNP) or o-nitrophenol (oNP) released from pNPG or oNPG after the glucose was hydrolyzed by glucosidase. The released pNP or oNP was detected at a wavelength of 405 nm and calibrated with standard curves. Mogroside conversion was stopped by the addition of one volume of pure methanol at specific time points. The converted products were then purified for HPLC-MS/MS analysis. […]
as §1

[5] = β-Glucosidase activity, pH and temperature optimum and stability of recombinant Exg1 proteins on pNPG; type: biochemical
Experimental: (§2) The optimal conditions for β-glucosidase activity were determined. The optimum pH was obtained by monitoring enzyme activity at a range of pH levels (from pH 3 to pH 9) in the reaction buffer. Incubation was carried out at 60° C. for 30 min. To analyze enzyme stability, the same buffer system and pH range were used, however, the reactions were performed at 4° C. for 1 h. The optimum temperature was determined in 20 mM acetate buffer at pH 5 in a range of temperatures from 20° C. to 90° C. For temperature stability analysis, β-glucosidase was extracted and activity was monitored following 1 h incubation in 20 mM acetate buffer, pH 5. […] The enzyme and substrate mixture were incubated under optimum enzymatic reactions conditions of 60° C., pH 5. The f-glucosidase activity was determined by measuring the levels of p-nitrophenol (pNP) or o-nitrophenol (oNP) released from pNPG or oNPG after the glucose was hydrolyzed by glucosidase. The released pNP or oNP was detected at a wavelength of 405 nm and calibrated with standard curves. Mogroside conversion was stopped by the addition of one volume of pure methanol at specific time points. The converted products were then purified for HPLC-MS/MS analysis.

[6] = substrate: O=[N+]([O-])c1ccc(O[C@@H]2O[C@H](CO)[C@@H](O)[C@H](O)[C@H]2O)cc1; assay: Enzyme kinetics of recombinant ScExg1 on oNPG and pNPG substrates (β-glucosidase activity); type: biochemical, Saccharomyces cerevisiae; conditions: other: rScExg1; pNP/oNP release at 405 nm
Experimental: as §2
(§3) Because mogrosides are known to be hydrolyzed by Exg1p in S. cerevisiae (ScExg1), we hypothesized that an Exg1-like glucan-β-glucosidase in D. bruxellensis (DbExg1) might be responsible for the observed mogroside conversion. To test this hypothesis, DbExg1 was cloned with a galactose-induced promoter sequence and six-histidine tag (6×His) at the C-terminus of the gene. The plasmids were transformed and expressed in S. cerevisiae as previously described. […] The recombinant DbExg1 (termed rDbExg1) was purified by Ni^2+-affinity chromatography (data not shown).
(§4) To evaluate the preferred pH, preferred temperature and hydrolyzing capability of rDbExg1, we used pNPG substrates and compared the results with ScExg1. rDbExg1 retained half of its activity over a pH range of 3.0 to 7.0 and was stable at pH 5.0-7.0. The optimum pH was 5.0 in a sodium phosphate buffer system (FIG. 3C). […] The optimum temperature for rDbExg1 was 60° C. However, the enzyme only retained 40% of its activity after incubation at 60° C. for 30 min. […] (FIG. 3B). Both ScExg1 and rDbExg1 were stable at temperatures below 50° C. (FIGS. 3B and D). The Michaelis constant (Km) and maximum velocity (Vmax) of rDbExg1 and rScExg1 were also compared and calculated (Table 3).
(§5) Table 3: Kinetic parameters of recombinant DbExg1 and ScExg1 proteins on oNPG and pNPG substrates (4) Enzymatic Hydrolysis of Mogrosides

[7] = substrate: O=[N+]([O-])c1ccccc1O[C@@H]1O[C@H](CO)[C@@H](O)[C@H](O)[C@H]1O; assay: as above; type: biochemical, Saccharomyces cerevisiae; conditions: other: rScExg1; pNP/oNP release at 405 nm
Experimental: as §2, §3, §4, §5

Q: Which Kcat [1] does the source give for `O=[N+]([O-])c1ccccc1O[C@@H]1O[C@H](CO)[C@@H](O)[C@H](O)[C@H]1O` [o NPG, o-nitrophenol β-D-glucoside] here?
A: 0.458 ± 0.012 s⁻¹

Q: And the Vmax [1]?
A: 9.16 ± 0.247 µmol/min/mg

Q: With `C[C@H](CC[C@@H](O[C@@H]1O[C@H](CO)[C@@H](O)[C@H](O)[C@H]1O[C@@H]1O[C@H](CO)[C@@H](O)[C@H](O)[C@H]1O)C(C)(C)O)[C@H]1CC[C@@]2(C)[C@@H]3CC=C4[C@@H](CC[C@H](O[C@@H]5O[C@H](CO)[C@@H](O)[C@H](O)[C@H]5O)C4(C)C)[C@]3(C)[C@H](O)C[C@]12C` [MG IIIE, mogroside III E] as the molecule, how does the “times sweeter than 5% sucrose” value [2] read?
A: less sweet

Q: For `C[C@H](CC[C@@H](O[C@@H]1O[C@H](CO[C@@H]2O[C@H](CO)[C@@H](O)[C@H](O)[C@H]2O)[C@@H](O)[C@H](O)[C@H]1O[C@@H]1O[C@H](CO)[C@@H](O)[C@H](O)[C@H]1O)C(C)(C)O)[C@H]1CC[C@@]2(C)[C@@H]3CC=C4[C@@H](CC[C@H](O[C@@H]5O[C@H](CO[C@@H]6O[C@H](CO)[C@@H](O)[C@H](O)[C@H]6O)[C@@H](O)[C@H](O)[C@H]5O)C4(C)C)[C@]3(C)[C@H](O)C[C@]12C` [MG V, mogroside V], which “times sweeter than 5% sucrose” value [2] is on record?
A: 392 times

Q: Which “times sweeter than 5% sucrose” value [2] does the source give for `C[C@H](CC[C@@H](O[C@@H]1O[C@H](CO)[C@@H](O)[C@H](O)[C@H]1O[C@@H]1O[C@H](CO)[C@@H](O)[C@H](O)[C@H]1O)C(C)(C)O)[C@H]1CC[C@@]2(C)[C@H]3CC=C4[C@@H](CC[C@H](O[C@@H]5O[C@H](CO[C@@H]6O[C@H](CO)[C@@H](O)[C@H](O)[C@H]6O)[C@@H](O)[C@H](O)[C@H]5O)C4(C)C)[C@]3(C)[C@H](O)C[C@]12C` [MG IV, mogroside IV] here?
A: 465 times

Q: Which “times sweeter than 5% sucrose” value [2] does the source give for `C[C@H](CC[C@@H](O[C@@H]1O[C@H](CO[C@@H]2O[C@H](CO)[C@@H](O)[C@H](O)[C@H]2O)[C@@H](O)[C@H](O)[C@H]1O[C@@H]1O[C@H](CO)[C@@H](O)[C@H](O)[C@H]1O)C(C)(C)O)[C@H]1CC[C@@]2(C)[C@@H]3CC=C4[C@@H](CC[C@H](O[C@@H]5O[C@H](CO)[C@@H](O)[C@H](O)[C@H]5O)C4(C)C)[C@]3(C)[C@H](O)C[C@]12C` [SI, siamenoside I] here?
A: 563 times

B1: recombinant DbExg1 (rDbExg1), Exg1-like β-glucosidase from Dekkera bruxellensis, C-terminal 6xHis (Brettanomyces bruxellensis) (protein)
chain: APIILKKRDWDYTKDKIHGVNIGGWLVLEPYITPSLFETFGDDAPVDEYHYTQQLGKEEASKRLQEHWANWITEKDFEYIANLGLNMVRIPIGYWAFELQDNDPYVQGQQAYLDKALGWAEKNGLKVWIDLHGVPGSQNGFDNSGLRDQIDWQTGSGNVDFTLNVLKEMIEKYSDSDYSDTIIGIELLNEPLGSSLNMDELKVFYSSGYELVRDQDASVPVIIQDAFQSDYYWDDFLNTEQDTNIYGVVVDHHHYQVFSTGELQRDMDTRIQTACNWGKQEGGEYHWNVCGEFSAALTDCAKWLNGLGRGARYDSSYGGGAYVGSCDDLYTYDEDYWNNSDVIKQYRQYVEAQMDAFENGKMGGWVFWCWKTESAVEWDFQRLAGLNVIPQPLDDRLYPNQCSF
Q: With B1 as the molecule, how does the Km [3] read?
A: 781 ± 4 µM

Q: What about the Vmax [3] of the same molecule?
A: 10.4 µmol/min/mg

Q: What about the kcat [3] of the same molecule?
A: 0.518 s⁻¹

Q: And the kcat/Km [3]?
A: 663 M⁻¹ s⁻¹

Q: And the Km [4]?
A: 734 ± 2 µM

Q: What about the Vmax [4] of the same molecule?
A: 9.27 µmol/min/mg

Q: What about the kcat [4] of the same molecule?
A: 0.464 ± 0.006 s⁻¹

Q: What about the kcat/Km [4] of the same molecule?
A: 632 ± 7 M⁻¹ s⁻¹

B2: recombinant ScExg1 (rScExg1), Exg1p of Saccharomyces cerevisiae (Saccharomyces cerevisiae S288C) (protein)
chain: YYDYDHGSLGEPIRGVNIGGWLLLEPYITPSLFEAFRTNDDNDEGIPVDEYHFCQYLGKDLAKSRLQSHWSTFYQEQDFANIASQGFNLVRIPIGYWAFQTLDDDPYVSGLQESYLDQAIGWARNNSLKVWVDLHGAAGSQNGFDNSGLRDSYKFLEDSNLAVTTNVLNYILKKYSAEEYLDTVIGIELINEPLGPVLDMDKMKNDYLAPAYEYLRNNIKSDQVIIIHDAFQPYNYWDDFMTENDGYWGVTIDHHHYQVFASDQLERSIDEHIKVACEWGTGVLNESHWTVCGEFAAALTDCTKWLNSVGFGARYDGSWVNGDQTSSYIGSCANNDDIAYWSDERKENTRRYVEAQLDAFEMRGGWIIWCYKTESSLEWDAQRLMFNGLFPQPLTDRKYPNQCGTISN
Q: Which results are given for B2?
A: optimum temperature [5]: 50 °C; Km [6]: 865 ± 3 µM; Vmax [6]: 11.7 µmol/min/mg; kcat [6]: 0.587 ± 0.018 s⁻¹; kcat/Km [6]: 679 ± 5 M⁻¹ s⁻¹; Km [7]: 840 ± 42 µM
